# Measured values reported in the supplement of paper PMC9112550, “Optimization of the antimicrobial peptide Bac7 by deep mutational scanning” (BMC Biology, 2022).
# Tested on: Escherichia coli TOP10
# Test: shrunken log2 fold change of peptide-encoding DNA abundance (4.5 h post-induction vs induction); higher = less antimicrobial activity (less host growth inhibition)
# Conditions: time post-induction: 4.5 h; library: site-saturation at positions 5, 18, 19, 20
# 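Note: peptides expressed intracellularly from a pBAD plasmid library in pooled LB shake-flask culture, induced with 0.3% L-arabinose, DNA abundance read by NGS, three biological replicates, DESeq2 with apeglm shrinkage.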
row,Sequence,shrunken log2 fold change
1,RRIRGRPPRLPRPRPRPMGNPRP,0.124
2,RRIRCRPPRLPRPRPRPNTIPRP,-0.553
3,RRIRQRPPRLPRPRPRPIFTPRP,-0.123
4,RRIRTRPPRLPRPRPRPVQQPRP,0.0144
5,RRIRHRPPRLPRPRPRPGELPRP,0.0143
6,RRIRKRPPRLPRPRPRPFEAPRP,2.17
7,RRIRYRPPRLPRPRPRPTFDPRP,-0.76
8,RRIRDRPPRLPRPRPRPDVQPRP,0.0508
9,RRIRTRPPRLPRPRPRPEQCPRP,-0.01
10,RRIRTRPPRLPRPRPRPVGSPRP,-0.243
11,RRIRGRPPRLPRPRPRPKLWPRP,0.896
12,RRIRPRPPRLPRPRPRPVFHPRP,-0.178
13,RRIRDRPPRLPRPRPRPCNVPRP,0.0436
14,RRIRLRPPRLPRPRPRPLWQPRP,-0.0523
15,RRIRSRPPRLPRPRPRPVTHPRP,-0.152
16,RRIRGRPPRLPRPRPRPLVRPRP,0.577
17,RRIRRRPPRLPRPRPRPRRSPRP,0.516
18,RRIRDRPPRLPRPRPRPIGSPRP,-0.693
19,RRIRRRPPRLPRPRPRPVPQPRP,0.28
20,RRIRYRPPRLPRPRPRPPSRPRP,0.232
21,RRIRHRPPRLPRPRPRPKPHPRP,0.172
22,RRIRKRPPRLPRPRPRPPDNPRP,0.0807
23,RRIRDRPPRLPRPRPRPMPGPRP,0.065
24,RRIRHRPPRLPRPRPRPCFDPRP,-0.00612
25,RRIRNRPPRLPRPRPRPEMNPRP,0.0511

row,Sequence,shrunken log2 fold change
1,RRIRCRPPRLPRPRPRPSKHPRP,-0.553
2,RRIRMRPPRLPRPRPRPHPWPRP,0.227
3,RRIRDRPPRLPRPRPRPQDNPRP,-0.0684
4,RRIRSRPPRLPRPRPRPDWCPRP,0.224
5,RRIRARPPRLPRPRPRPDQLPRP,0.421
6,RRIRERPPRLPRPRPRPDTDPRP,0.0402
7,RRIRFRPPRLPRPRPRPEEMPRP,-0.00182
8,RRIRSRPPRLPRPRPRPLVVPRP,0.268
9,RRIRARPPRLPRPRPRPFGPPRP,0.0166
10,RRIRNRPPRLPRPRPRPIAPPRP,0.0153
11,RRIRVRPPRLPRPRPRPMMLPRP,-0.0127
12,RRIRCRPPRLPRPRPRPRSGPRP,0.694
13,RRIRARPPRLPRPRPRPNCKPRP,-0.0213
14,RRIRRRPPRLPRPRPRPKWNPRP,0.0781
15,RRIRRRPPRLPRPRPRPEVWPRP,1.74
16,RRIRDRPPRLPRPRPRPGDRPRP,-0.00192
17,RRIRRRPPRLPRPRPRPSLQPRP,0.334
18,RRIRIRPPRLPRPRPRPYLNPRP,-0.239
19,RRIRTRPPRLPRPRPRPRLSPRP,-0.0634
20,RRIRYRPPRLPRPRPRPTWIPRP,-1.08
21,RRIRLRPPRLPRPRPRPLPMPRP,0.0573
22,RRIRIRPPRLPRPRPRPRLEPRP,0.117
23,RRIRTRPPRLPRPRPRPRPSPRP,0.703
24,RRIRTRPPRLPRPRPRPRVMPRP,0.0867
25,RRIRPRPPRLPRPRPRPPCAPRP,0.925

row,Sequence,shrunken log2 fold change
1,RRIRDRPPRLPRPRPRPIIAPRP,0.0706
2,RRIRQRPPRLPRPRPRPCHFPRP,0.173
3,RRIRTRPPRLPRPRPRPVKVPRP,0.00854
4,RRIRCRPPRLPRPRPRPNSRPRP,-0.175
5,RRIRSRPPRLPRPRPRPGDFPRP,0.0535
6,RRIRSRPPRLPRPRPRPFGTPRP,0.0399
7,RRIRQRPPRLPRPRPRPWWSPRP,0.0234
8,RRIRMRPPRLPRPRPRPQHDPRP,-0.202
9,RRIRDRPPRLPRPRPRPMTSPRP,-0.169
10,RRIRYRPPRLPRPRPRPIWMPRP,-0.0399
11,RRIRNRPPRLPRPRPRPSNHPRP,-0.603
12,RRIRWRPPRLPRPRPRPMKLPRP,-0.198
13,RRIRARPPRLPRPRPRPDVNPRP,0.0462
14,RRIRWRPPRLPRPRPRPKGVPRP,0.109
15,RRIRIRPPRLPRPRPRPTQVPRP,0.00035
16,RRIRLRPPRLPRPRPRPMQMPRP,-0.11
17,RRIRDRPPRLPRPRPRPPETPRP,0.743
18,RRIRFRPPRLPRPRPRPDQMPRP,-0.155
19,RRIRFRPPRLPRPRPRPAGQPRP,0.171
20,RRIRMRPPRLPRPRPRPGFVPRP,0.449
21,RRIRRRPPRLPRPRPRPEKTPRP,0.00726
22,RRIRPRPPRLPRPRPRPSEKPRP,-0.0945
23,RRIRERPPRLPRPRPRPGKLPRP,0.162
24,RRIRHRPPRLPRPRPRPDDQPRP,-0.0481
25,RRIRPRPPRLPRPRPRPYQDPRP,-0.025

row,Sequence,shrunken log2 fold change
1,RRIRIRPPRLPRPRPRPNQNPRP,-0.391
2,RRIRSRPPRLPRPRPRPGPDPRP,0.332
3,RRIRFRPPRLPRPRPRPLGNPRP,-0.215
4,RRIRERPPRLPRPRPRPQMDPRP,0.178
5,RRIRKRPPRLPRPRPRPVCLPRP,0.0948
6,RRIRNRPPRLPRPRPRPRMDPRP,-0.104
7,RRIRPRPPRLPRPRPRPVSQPRP,-0.0764
8,RRIRRRPPRLPRPRPRPERGPRP,0.798
9,RRIRVRPPRLPRPRPRPSYHPRP,-0.819
10,RRIRKRPPRLPRPRPRPDVYPRP,-0.0383
11,RRIRQRPPRLPRPRPRPSCHPRP,-0.253
12,RRIRMRPPRLPRPRPRPTEAPRP,0.0796
13,RRIRDRPPRLPRPRPRPDVWPRP,0.511
14,RRIRTRPPRLPRPRPRPGFMPRP,-0.0526
15,RRIRLRPPRLPRPRPRPRVHPRP,0.0142
16,RRIRDRPPRLPRPRPRPSSLPRP,0.15
17,RRIRIRPPRLPRPRPRPIDMPRP,-0.0681
18,RRIRFRPPRLPRPRPRPDLIPRP,-0.0121
19,RRIRHRPPRLPRPRPRPPACPRP,0.153
20,RRIRWRPPRLPRPRPRPYIQPRP,-1.07
21,RRIRGRPPRLPRPRPRPDMSPRP,0.0457
22,RRIRHRPPRLPRPRPRPVNNPRP,-1.17
23,RRIRDRPPRLPRPRPRPRQSPRP,-0.00504
24,RRIRMRPPRLPRPRPRPFKIPRP,-0.0716
25,RRIRDRPPRLPRPRPRPSMCPRP,0.123

row,Sequence,shrunken log2 fold change
1,RRIRQRPPRLPRPRPRPGWGPRP,0.957
2,RRIRTRPPRLPRPRPRPNDAPRP,-0.036
3,RRIRWRPPRLPRPRPRPVQHPRP,0.136
4,RRIRKRPPRLPRPRPRPNAQPRP,0.842
5,RRIRERPPRLPRPRPRPTMYPRP,-0.162
6,RRIRTRPPRLPRPRPRPQFIPRP,-0.07
7,RRIRKRPPRLPRPRPRPCNGPRP,-0.0184
8,RRIRPRPPRLPRPRPRPWPEPRP,0.0423
9,RRIRNRPPRLPRPRPRPEQEPRP,0.0175
10,RRIRNRPPRLPRPRPRPHMRPRP,-0.00174
11,RRIRPRPPRLPRPRPRPSAAPRP,0.487
12,RRIRHRPPRLPRPRPRPTWWPRP,0.368
13,RRIRVRPPRLPRPRPRPWFYPRP,-0.373
14,RRIRSRPPRLPRPRPRPSLMPRP,-0.201
15,RRIRIRPPRLPRPRPRPIREPRP,-0.0273
16,RRIRCRPPRLPRPRPRPHYGPRP,-0.189
17,RRIRGRPPRLPRPRPRPVVMPRP,0.237
18,RRIRVRPPRLPRPRPRPEKSPRP,0.0304
19,RRIRCRPPRLPRPRPRPKNRPRP,-0.118
20,RRIRARPPRLPRPRPRPFAFPRP,0.552
21,RRIRIRPPRLPRPRPRPRDSPRP,-0.346
22,RRIRLRPPRLPRPRPRPQLHPRP,-0.123
23,RRIRWRPPRLPRPRPRPKTIPRP,0.118
24,RRIRQRPPRLPRPRPRPLHTPRP,0.0932
25,RRIRHRPPRLPRPRPRPPTGPRP,0.03

row,Sequence,shrunken log2 fold change
1,RRIRSRPPRLPRPRPRPHMGPRP,-0.0366
2,RRIRTRPPRLPRPRPRPFDMPRP,-0.00208
3,RRIRPRPPRLPRPRPRPTGKPRP,0.102
4,RRIRTRPPRLPRPRPRPCIWPRP,-0.0258
5,RRIRRRPPRLPRPRPRPPLWPRP,0.883
6,RRIRQRPPRLPRPRPRPMPTPRP,0.0311
7,RRIRCRPPRLPRPRPRPNYFPRP,-0.763
8,RRIRFRPPRLPRPRPRPYCVPRP,-1.23
9,RRIRGRPPRLPRPRPRPKYWPRP,1.13
10,RRIRIRPPRLPRPRPRPPTLPRP,-0.431
11,RRIRGRPPRLPRPRPRPVWSPRP,0.179
12,RRIRRRPPRLPRPRPRPYRRPRP,0.0385
13,RRIRWRPPRLPRPRPRPFSHPRP,-0.241
14,RRIRHRPPRLPRPRPRPFMLPRP,-0.726
15,RRIRHRPPRLPRPRPRPDWSPRP,0.00911
16,RRIRNRPPRLPRPRPRPANFPRP,-0.193
17,RRIRPRPPRLPRPRPRPFHDPRP,0.000303
18,RRIRERPPRLPRPRPRPQTSPRP,-0.37
19,RRIRTRPPRLPRPRPRPLYRPRP,0.0015
20,RRIRQRPPRLPRPRPRPFAMPRP,-0.132
21,RRIRMRPPRLPRPRPRPLCYPRP,-0.0697
22,RRIRNRPPRLPRPRPRPNSDPRP,-0.073
23,RRIRDRPPRLPRPRPRPDSFPRP,-0.00691
24,RRIRGRPPRLPRPRPRPTFHPRP,0.366
25,RRIRPRPPRLPRPRPRPGSWPRP,0.941
